According to a protein production outcome set (Wang et al. 2014):

Experiment: label from the status in PepcDB records

Sequence | protein production
MTLTSGDKQGNTPGQASDTERWASLIGGGALVLLGLRQASLRGVLTALAGGGLIYQGATKQSTIQQAQEAIGINKPIKVEKTVTINKPADELYRYWHNFENLPTFMKHLKSVKVYNEKRSHWIANAPLGNSVEWDADILEDRENEFISWASAEGADVENSGFVRFQKAPGDVPGQAASRLRGTEVKVVLEYNLPGGALAAVVAKLFGEEPEQQIGDELRRFKMLMEAGEIATTEGQPSGRK | failed
MDIAGYLSFFFASFTTLFIIIDPPGNLPIFIALTERFSDEYREKISKRATIIAFLILFITMVTGGKILDYFGVSISSLKIAGGILLFISSVDILLGGTRREAYKRRAEESIDVDSIAVFPLALPLYTGPGAITAGIVLYSQAGDVVMKLLVVLSAALVYSIVRLSHIYSAPIIRLLGRSGADIAARILAIFLAAIAVEFVFDGLAEKLVSMDL | failed
MLCTYHAGQWFNNLLNFIDFIRLQFGKTANVLNLNDCLHIWLFSLEVRSLRDVVKMKLILSIMILSGCLLFILAGCARKNDYMPPAGATGEKIFKGACVQCHTPVNGKVMILRSEMANKEAIIERVTNGKGFGMPAFPNLTGDSVQNLAEYVLENSVTR | failed
MPASPEESAMTPWTPIARLEEIPRQGARVVATPEGAIAVFRTLDDRVFALLDRCPHKGGPLSQGIVHGARVACPLHNWVIELDSGQAVAPDEGCVRRFETRLEDGMVAIALPDSLVGTLEHHHHHH | not failed
MKTITTFENKKVLVLGLARSGEAAARLLAKLGAIVTVNDGKPFDENPTAQSLLEEGIKVVCGSHPLELLDEDFCYMIKNPGIPYNNPMVKKALEKQIPVLTEVELAYLVSESQLIGITGSNGKTTTTTMIAEVLNAGGQRGLLAGNIGFPASEVVQAANDKDTLVMELSSFQLMGVKEFRPHIAVITNLMPTHLDYHGSFEDYVAAKWNIQNQMSSSDFLVLNFNQGISKELAKTTKATIVPFSTTEKVDGAYVQDKQLFYKGENIMSVDDIGVPGSHNVENALATIAVAKLAGISNQVIRETLSNFGGVKHRLQSLGKVHGISFYNDSKSTNILATQKALSGFDNTKVILIAGGLDRGNEFDELIPDITGLKHMVVLGESASRVKRAAQKAGVTYSDALDVRDAVHKAYEVAQQGDVILLSPANASWDMYKNFEVRGDEFIDTFESLRGE | not failed
MLKVFAMEMKDAKLYGGIGAILQLVGPFVPSIGFILALVGLVLVFLAVKTISEKSGDEGIFNNYLKAFIAQILGIIIFVGIIVATIGTAILKGGMGKLANPMEFMSLIGTILLGFIILWIFYTVAGYFKKKSYENSQYTGTDMFKTAGLLFFIGAILIILGIGVLIILIAEILEIVAFFSLPETSESAPVSA | failed
MNKAITVIVWLLVSLCVLAIITMPVSLQTHLVATAISLILLATIKSFNGQGAWRLVALGFGTAIVLRYVYWRTTSTLPPVNQLENFIPGFLLYLAEMYSVVMLGLSLVIVSMPLPSRKTRPGSPDYRPTVDVFVPSYNEDAELLANTLAAAKNMDYPADRFTVWLLDDGGSVQKRNAANIVEAQAAQRRHEELKKLCEDLDVRYLTRERNVHAKAGNLNNGLAHSTGELVTVFDADHAPARDFLLETVGYFDEDPRLFLVQTPHFFVNPDPIERNLRTFETMPSENEMFYGIIQRGLDKWNGAFFCGSAAVLRREALQDSDGFSGVSITEDCETALALHSRGWNSVYVDKPLIAGLQPATFASFIGQRSRWAQGMMQILIFRQPLFKRGLSFTQRLCYMSSTLFWLFPFPRTIFLFAPLFYLFFDLQIFVASGGEFLAYTAAYMLVNLMMQNYLYGSFRWPWISELYEYVQTVHLLPAVVSVIFNPGKPTFKVTAKDESIAEARLSEISRPFFVIFALLLVAMAFAVWRIYSEPYKADVTLVVGGWNLLNLIFAGCALGVVSERGDKSASRRITVKRRCEVQLGGSDTWVPASIDNVSVHGLLINIFDSATNIEKGATAIVKVKPHSEGVPETMPLNVVRTVRGEGFVSIGCTFSPQRAVDHRLIADLIFANSEQWSEFQRVRRKNPGLIRGTAIFLAIALFQTQRGLYYLVRARRPAPKSAKPVGAVK | failed
GGRGIIRLIKDNKSLTMKNTEVMLHGSSLAFDASTLEIYAALLNGACLSIIDKEDLIDSQTLKEKLKNDHVNRAFFTTPLFNSLCEQDPSVFNELEQVIIGGDRASNKHLKIVMKNSKKTQFYNGYGPTENTVFTTMHNIQYSELEGDIPIGKA | failed
VTIDNIQKTVAEYYKIKVADLLSKRRSRSVARPRQXAXALAKELTNHSLPEIGDAFGGRDHTTVLHACRKIEQLREESHDIKEDFSNLIRTLSS | not failed
MILNLDTNIFNHGLSRHNILAFSQGFPIGLPCRNWIEVGLRLRLRLLLELAVGNFPQGFKIHLSGSFQAVRLALFSSFTSLRTDELLLIETRPSYLSSVQVWGKGRPLLLLLTKREQPALQANREPPARFESLRAGKQEEADRAKASPLLASALPEAVEVGTRSRRSRGSSCGFRVKLAHCQKANRSSYLDQRTLIPGRQQGLRVEGMNQVSWLRIGGMGVRSVPSSPSPRLRLLETGDRVFLRRLAASPFNKGFQWQQTAPQDEAKNGVGGLPVVRASKWLAGPRKHNERDDRSSTRPEIDVLLP | failed
MTWRKLSICMMVKDEEKNLKRCLESLKPILKGDEVELIVVDTGSKDRTVEIAKQYTNNIFYKPWNYNFSEMRNYTISLAKGEWIFILDADEELEDAKIILKEIEMAEKEGANAINIAVKNLVEENNKQNFVFGFSPRLFRNGFIKYEGAVHNQPIFRPPIYNSKIVIYHYGYIMNDTKLMEYKYKRTVSLLKKELEKDPLNIYYRYQLGVSYSMYGKIREAIEEFGKVYNLLKMENSEIKKGLVVVYGLYANNLLLLGLFDKALEVAEEGLNFNDEYIDLYYIAGLSLYAMGRRQEALVYFKKYMDLFKKVDQIKLLYDARVVFYNISNSYFDNVNAMVVQYLLDINNFLEAKVHIEQFKDNKLKLQYSTLLHIKEKNFNELFDFYSSCNQEDKEKVSEFIEKYITYFKFDEDERLEIYKKFSESNDVYGKYCCIITKKEKVESAILNIFDSNVFELLPSFYTKVLFRVAEKKEFLLETLKKIDVMVLRAKTAEALAAKFIDFEDVIQLLEVMKKEKADIDISARYIALALLVLLNFPRQSDERLYEIFLNYTENGILLISRLYKSEEIEEKYRYFLSEEEKYFALMYMIYLSLQEKRMDKSIKYLREAISTMPKLVKHLKRFSKDILGVDV | failed
RQRSLSTSGESLYHVLGLDKNATSDDIKKSYRKLALKYHPDKNPDNPEAADKFKEINNAHAILTDATKRNIYDKYGSLGLYVAEQFGEENVNTYFV | not failed
MATLTRLFIHPVKSMRGIGLTHALADVSGLAFDRIFMITEPDGTFITARQFPQMVRFTPSPVHDGLHLTAPDGSSAYVRFADFATQDAPTEVWGTHFTARIAPDAINKWLSGFFSREVQLRWVGPQMTRRVKRHNTVPLSFADGYPYLLANEASLRDLQQRCPASVKMEQFRPNLVVSGASAWEEDSWKVIRIGDVVFDVVKPCSRCIFTTVSPEKGQKHPAGEPLKTLQSFRTAQDNGDVDFGQNLIARNSGVIRVGDEVEILATAPAKIYGAAAADDTANITQQPDANVDIDWQGQAFRGNNQQVLLEQLENQGIRIPYSCRAGICGSCRVQLLEGEVTPLKKSAMGDDGTILCCSCVPKTALKLTRLEHHHHHH | failed
MAVSPDDPLILVGRVAGGFGVRGEVRITTYTEDPLSIAGFKALKRQDGSPALTIASARKTKDGVVCRCPGVETKEAADALRGLRLYVPRSALPEPDDDEFYLTDLVGLTVRHIQTDQLLGRVKSVQNFGAGDILEITPDLGGPTWYLPFTRAAVPEVRVSEGLILADPPALVGDHEGPEEKGLDENEELGDRDLEHHHHHH | failed
MKLELGNIFIKNVEFGEKTEVKDGVLYISSEEIEKIVLEDERIVSVNVELARPGESIRIAPVKDVIEPRVKIGDESKIFPGIINKVKTVGSGRTHVLLGACVVTCGNIVGFQEGVIDMSGPTAKYTPFSKTNNICIVIKAKDGIDTHDYEEAARIAGLKIGAYVGEAGREVEPDEVIVYETKPLLKQVKEYPDLPTVAYVHMLQSQGLLHDTYYYGVDAKQIVPTFMYPTEIMDGAIISGNCVAPCDKVTTFHHLNNPVIHDLYKRHGKDLNFIGVILTNENVFLVDKERSSDMVAKLIEFLGVDGVLVTEEGYGNPDTDLMMNCRKCSEVGANVVLITDEFPGKDGKSQSIADATKEADAVVSCGQGNLVVHFPAMEKIIGTLDYVEMMIGGYKGCLNEDGSMDAELQIIIASTIANGYNHLTARYY | failed
MSNSQAGPGASVRRVLAVIPARGGSKGVPAKNLAPVGGVPLVVRAVRECLAARLVTDVVVSTDDQAIAAAAREAGAEVVLRPAAIAGDTATSEAAVLHAMDAHEALHGAAVDVVLLVQCTSPFLVREDVDGVAGAVVEDGADTAVTVAPFHGFVWRDGADEPGGADGGHGVNHDKAYRPRRQDRPQDLLETGAAYAMAAPGFRKHRHRFFGRTDLVRTDPARVLEIDDPHDLARARALAPHFDTARPGALPTAADIDAVVLDFDGTQTDDRVLIDTDGREFVSVHRGDGLGIAALRRSGLTMLILSTEVNPVVAARARKLKLPVLHGIDRKDLALKQWCEEQGIAPERVLYVGNDVNDLPCFALVGWPVAVASAHDAVRGAARAVTTVPGGEGAVREIAAWLLGPSLDALGPASETTPTLTQSKLEHHHHHH | not failed
MFVSLLPLLLLTLVVGTLAGGEAFAERIVTAAGDVLTPAASTLLEDALTSGAGRGGATVLGVGVTLWSALKVFRGLDTAFSRVYGTDGPDSIVREIVDGLAALGGIGIALVGLGIIGAFGTVLGVQVALGGLALVPVLAVAFLPLYYLFPDQEMTLREAVPGAVFAGGGWTLLGTGFNVYAAQADSYQVYGVIGGVLLLVTWFYFAGQVLLVGAAVNAALADRQLQQVSRRRSGKAMSEDADETDTPPPAGTGPTGRDTDTLTDEELQELREEFESFREDIEGRTLHRDEVRSDLKQYVRRRMRRGHARQWGPYIVLLYGTIMTLGAFYYLKGLWAVLAMLVIWLSVLGLYAIMIAVGVTLTATGLPGRLVDRVRDWRQ | failed
MPHAARSDAAALRAPAADDGAYGKPAIALHWIIALLIFAAFGLGLYMTDIPGFTPTKLKLYSYHKWAGITVLILAVLRVLWRLTHPAPAPVAGMPAWQQKAAEGAHIVLYLLILAVPLTGYLLSVAAGIKVVYLGLWELPMPFDKSDALKEIFQVAHEWLNWTMATIVVLHILAALKHHIVDSDGTLRRMLPFLR | failed
MSDVIEGRLKELGFTLPVAAAPAANYVPFTISGNLLYVSGQLPMESGKIAVTGLVGRDVDVASAQRAAELCAVNILAQVKAALNGDLSKIRRVIKLNGFVASVPEFVEQHLVINGASNLIATVLGEPGRHARAAVGMASLPFNASVEIDAIVEIDV | not failed
MLAAEANLELDRETIRRQLWQSEAPEKRAGSLRQLLARIEQSIPAALPPLLKATRTHIGLADGWEVDVHMLKQKGPLAAEDGDILNGELLESAKSPTQGAEDWLTFERQRVDELRAAHLTRLVETAEDRSDEEQVAFARRLLELDPASETAYRALMRTYVRMNDPAAARQTYLKCKSQLKDEFDAEPEESTTALARELGLIPAAQPAAAERPSAGPSGFADLLGQPRIIILPPESIFTDPLMERVGRALLEDVTIGLSQQRGFRVIAAHTSLEILSRSVDPARAVPRPLDLSFDYAVYVTIQGRDEDVYATCRLTRTTTSEVIWALELPLVMQKISESFAHLTRRIVSSLADTVERHELAMPIGDAPPSAYRLYLEGKRLIAQTDLQHLRQARKWFKSSLNRYENFSAAHAGVSRALGMEWLIRGMQDTELLDEANGAARQAQQSDPNSGRAYRELGFVALYRRRFDESLDYFQQAQDLNPNDADILADYADALCHYGDFDKALDLNNAAFKLNPLPPDYYYWNRGGIHFDRGEYQQAIEALEPVKSKQATARLLAAAHAMAGDMKKAGGYASVVLDNFPDFRSEDIRHFVPDRDPRYTETLIHGLHLAGLP | failed
MGHHHHHHSHMASLTVKAYLLGKEDAAREIRRFSFCCSPEPEAEAEAAAGPGPCERLLSRVAALFPALRPGGFQAHYRDEDGDLVAFSSDEELTMAMSYVKDDIFRIYIKEKKECRRDHRPPCAQEAPRNMVHP | failed
